The values that follow come from the RNAGym collection of RNA variant scans (doi:10.1021/acssynbio.7b00057).

B1: Pistol ribozyme (parent)
chain: GGGUCGUUGUUCCAUAAUCGCGUGGAUAUGGCACGCAAGUUUCUACCGGGCACCGUAAAUGUCCGACUGGAGCCGUUCGGGCGGCUAUAAACAGACCUCAGGCCCGAAGCGUGGCGGCACCUGCCGCCGGUGGUAAAAAAGAUCGGAAGAGCACACGUCU

This series covers variants of B1. The experiment in a line: aptazyme ON/OFF ratio, guanine; higher = stronger switching; co-transcriptional cleavage with and without guanine.
As for U8A G9U U11C C12U, the “aptazyme ON/OFF ratio” value is 1.13. The result for U7A U8A G9A U10C U11G C12A C13G reads 1.09.

U7A U10A U11C C13U: the “aptazyme ON/OFF ratio” value was 1. As for U7G U8G G9C U10G U11G C12U C13G, the “aptazyme ON/OFF ratio” value was 1.05. In the case of U10G U11A C13A, the “aptazyme ON/OFF ratio” value was determined as 1.15. For the variant U7A U8A G9C U10G U11G C12U C13G, the “aptazyme ON/OFF ratio” value was determined as 1.15. With U7A U8A G9C U10G U11G C12U C13U, the “aptazyme ON/OFF ratio” value stood at 1.18. Regarding U7A G9C U10G C12A C13U, the “aptazyme ON/OFF ratio” value was found to be 1.09. Take U7A U8A G9C U10G U11C C12A C13U: the “aptazyme ON/OFF ratio” value turned out to be 1.23. On to U8G U11G C12G C13U, for which the “aptazyme ON/OFF ratio” value worked out at 1.2. The result for U7C U8G G9A C12A reads 1.34; that for U7G G9C U10G C12G C13A, 1.28; that for U7A U8C G9C U10A U11G C12A C13A, 1.11. Consider U7A U8G U10A U11A C12U C13U, for which the “aptazyme ON/OFF ratio” value was 1.28.

Regarding U7A U11G C12A C13G, the “aptazyme ON/OFF ratio” value was found to be 1.25. For the variant U8C G9C U10A U11C C13G, the “aptazyme ON/OFF ratio” value came to 1.2. Take G9A U10C U11G C12A: the “aptazyme ON/OFF ratio” value was found to be 1.03. As to U7C U8G G9C U10G U11C C12G C13G, the “aptazyme ON/OFF ratio” value came out at 1.22. Regarding U7G U8G G9A U10G C13U, the “aptazyme ON/OFF ratio” value is 1.27. For U8A G9C U10C U11C C12A C13G, the “aptazyme ON/OFF ratio” value came to 1.01.

In the case of U7A U8G U10G U11A C12G C13U, the “aptazyme ON/OFF ratio” value came out at 1.46.

As for U8C G9U U10C U11C C12A C13G, the “aptazyme ON/OFF ratio” value was 1.62. On to U7C U8G G9A U10G U11A C12U, for which the “aptazyme ON/OFF ratio” value is 1.16.

In the case of U8C G9A U10A C12G C13A, the “aptazyme ON/OFF ratio” value came to 1.14. Next, U7A U8A U10C C12G C13G: 1.19. As for U7A G9A U10A U11C C12A C13U, the “aptazyme ON/OFF ratio” value is 1.1. On to U7C G9U U10C U11A C12G C13A, for which the “aptazyme ON/OFF ratio” value is 1.19. Take U7G U8C G9A U10A U11G C12A C13U: the “aptazyme ON/OFF ratio” value turned out to be 1.09. Take U7C U8C U11A C12A C13A: the “aptazyme ON/OFF ratio” value was found to be 1.2. Turning to U7A U8A G9U U10G U11G C13A, the “aptazyme ON/OFF ratio” value worked out at 1.24.

On to U7A U8A U10G C12A C13G, for which the “aptazyme ON/OFF ratio” value worked out at 1.06.

Turning to U8A G9C U10G U11C C12U C13A, the “aptazyme ON/OFF ratio” value was 1.13. As to U7A U8C G9A U10C U11A C12U C13A, the “aptazyme ON/OFF ratio” value was found to be 1.12. The result for U7G U8C G9U U10G U11C C12U C13A reads 1.34; that for U7G U8G G9A U11C C12U C13A, 1.31; that for U7A U8C G9A U10G U11C C12A C13A, 1.18. The result for U8C G9U C12G reads 1.42; that for U8A G9U C12A C13U, 1.15; that for U7A U8A G9U U10A C12A, 1.27. For the variant U7G U8G G9A U10A C12G C13A, the “aptazyme ON/OFF ratio” value was 1.1. With U8C U10G U11A C13A, the “aptazyme ON/OFF ratio” value amounted to 1.26. Next, U7G U8C G9A U10C U11A C12A C13A: 1.15. For U7G U8C G9A U10C U11A C12A C13G, the “aptazyme ON/OFF ratio” value is 1.11. Next, U7C U8G G9A U10C U11A C12G C13G: 1.09; U7C G9C U10G U11A C12G C13G: 1.11. For U8C G9A U10C U11A C12U C13U, the “aptazyme ON/OFF ratio” value was determined as 1.28. U7A G9A U10C U11A C12A C13G: the “aptazyme ON/OFF ratio” value is 1.05. As to U7G U10C U11A C12A C13A, the “aptazyme ON/OFF ratio” value amounted to 1.17.

As to U7A U8G U10G C12G C13G, the “aptazyme ON/OFF ratio” value turned out to be 1.3. For the variant U7G U8G U10C U11C C12A C13A, the “aptazyme ON/OFF ratio” value came out at 1.3. Regarding U7A G9U U10G U11G C12A C13G, the “aptazyme ON/OFF ratio” value came out at 1.12.

U8A U10C U11C C12A: the “aptazyme ON/OFF ratio” value was 1.08. With U8C G9A U10G U11A C13G, the “aptazyme ON/OFF ratio” value was 1.04. On to U7G U8C G9C U10C C12G C13U, for which the “aptazyme ON/OFF ratio” value came out at 1.08. U8A G9A U10A U11G C12U C13G: the “aptazyme ON/OFF ratio” value was found to be 1.18. Next, U8A G9A U10A C13G: 1.1. Take U7A U8C G9A U10C U11A C13U: the “aptazyme ON/OFF ratio” value amounted to 1.28. Next, U7G U8C G9C U10G U11C C12A C13G: 1.18; U7G U8C G9A C12G C13A: 1.05; U7A U8C U11A C12U C13U: 1.28. Take U7A U8C U11A C12U C13G: the “aptazyme ON/OFF ratio” value was found to be 1.24.

Turning to U7A U8C U10C U11A C12U C13G, the “aptazyme ON/OFF ratio” value turned out to be 1.19. Next, U8A U10C U11G C12U C13G: 1.2; U7A U10A C13U: 1.07. U8A G9A U11G C12U C13U: the “aptazyme ON/OFF ratio” value was found to be 1.51. On to U10C U11G C12G C13A, for which the “aptazyme ON/OFF ratio” value was found to be 1.24.

Regarding U7C U8A G9U U10G C12U C13U, the “aptazyme ON/OFF ratio” value was found to be 1.27. With U7A U11A C13U, the “aptazyme ON/OFF ratio” value was 1.13. For U7C U8A C12G C13A, the “aptazyme ON/OFF ratio” value came to 1.14. For U7C U8A G9U U10C U11A C12A C13A, the “aptazyme ON/OFF ratio” value worked out at 1.08. The result for U8C U11C C12A C13A reads 1.24. The result for U7C U8A G9A U10G C12A C13A reads 1.14. Take U7G U8G U11A C12U: the “aptazyme ON/OFF ratio” value was 1.38. On to U7A U8C G9C U11C C12U C13U, for which the “aptazyme ON/OFF ratio” value was found to be 1.06. As for U7G U8A U10C, the “aptazyme ON/OFF ratio” value is 2.69. For U7G U8A G9U U11G, the “aptazyme ON/OFF ratio” value amounted to 1.17. Take U7C G9A U10G U11G C12U C13U: the “aptazyme ON/OFF ratio” value amounted to 1.21.

For the variant U7C U8C G9A U10A U11C C12A, the “aptazyme ON/OFF ratio” value is 1.37.

On to G9A U10A U11A C13G, for which the “aptazyme ON/OFF ratio” value was determined as 1.05.

Regarding U7A U8C G9A U10A U11C C12G C13U, the “aptazyme ON/OFF ratio” value came to 1.2. Next, U8C U11A C13U: 1.11; U7G U8C U10A U11G C12G C13U: 1.25; G9A U10C C12U: 1.5.
